Reference: US20240287489A1, “CHITINOLYTIC ENZYME-BASED PLANT PROTECTION AGENTS” (GLOBACHEM NV, priority 2021, published 2024)

B1: Chitinase 1: chitinolytic enzyme from P. orarium, SEQ ID NO: 1, recombinant with PelB signal peptide and 6×His tag; run 19 = 2 μM alone (protein, listed as Photobacterium orarium)
chain: MAAPGTPQIAWMETDYAIVEVDQAASAYKSLITVKPAAEVPVAWQRYSGETADLWKVKLNGNVVFEQSIAPASSGAGSTTLSVAQGGQYAMTVELCSGTGAAQACTSSAATNIVVADTDGSHLDPLPMNVDANNGNYTTPANTVVGAYFVEWGVYGRKFSVDNIPAQNLTHILYGFIPICGPNESLGEIENGNSLAALNRACQGTPDYEVVIHDPWAAVQMPQPQSGHTHSTPYKGTYGQMMALKQRYPDLKIVPSVGGWTLSDPFYSFTDKAKRDIFVASVKKFLKTWKFFDGVDIDWEFPGGKGANANLGDPVNDGPAYVALMRELRVMLDELEAETGRQYELTSAIGVGYDKIDVVNYADAVQYMDYIFAMTYDFFGGWNNVPGHQTALFCGSHMSADVCNGTGVDENGVPRQGPAYTAAHGIDRLLAQGVPANKLVLGTAMYARGWTGVTEASMTDPTNPMTGTGNGMVPGSWEPGVIDYKDVVTDYINNAAVTKGYDAQAEAPWAYNPSNGNLITYDDRRSVLAKGQYVRNLGLAGLFAWEIDADNGDILNAMQDSLAGGGGNYAPVAKAGADQVVNGAASVTLDGSASSDRDGQIVSYQWTQTSGPALTLTGSDTATATVAVPEVTADTQYAFTLTVTDNAGDTATDSVTVTAKAPGSNTAPVVAVSGPATASAGDTVVLDASQSSDADGDTLTFTWTVPAGVNATVNGATVSFVADSYTVDTPLNFTVAVSDGTDSVTESVTVTVLKDGGSTGCTNAWATGGVYNSGDIVTHSGKSWKAKWWTTGEEPGTTGEWGVWEDLGAANCQIE
modifications: PelB signal peptide; 6xHis tag; Chitinase 1
notes: run 19 = 2 μM alone
B2: Chitinase 3: chitinolytic enzyme from P. orarium, SEQ ID NO: 3, recombinant with PelB signal peptide and 6×His tag (protein, listed as Photobacterium orarium)
chain: MALAAPGTPQLAWMETDYAIVEVDQAATAYKDLVTVKNAADVPVAWQRYSGETADHWKVKLNGNVAFEESINPASSGAGSTTLSITQGGQYALTVELCSGSGAEEACSSSPATNIVVADTDGSHLDPLPMNVDPNNGTYSTPADTVVGAYFVEWGVFGRKFTVDKIPAQNLTHILYGFIPVCGPNESLGEIESGNSLAALNRACAGTPDFEVAIHDPWAAVQMPQPQSGHTYSTPYKGNYGQLMALKQRYPDLKVIPSIGGWTLSDPFFSFTDKSKRDVFVASVKKFLQTWKFFDGVDIDWEFPGGKGANTTLGDPVNDGPAYVALMRELRTMLDGLEAETGRQFELTSAIGVGYDKIDVVNYAEASQYMDYIFNMSYDFYGGWSNVTGHQTALNCGSHLTADQCNGTGVDENGEPRQGPAYTTAHGVERLLAQGVPANKLVVGAAMYGRGWTGVTQASMTDPSNPMTGVGNGAVAGSWEAGVIDYKDVVTRYENKAGVVLGYDEQAEAPWAYDPSNGDLVTYDSPRSIMAKGQYVRDLGLAGLFAWEIDADNGDILNAMQESLAGAPAGNRAPVARAGSDQQVNTAATVTLNGSSSTDSDGQIAGYQWVQTSGPALTLNGANTASATISVPDVTVDTQYVFTLTVTDNEGATATDSITVTAKAPGAQNTAPVASLTGPGTANADDVITLDASQSTDADGDTLTYDWTVPAGVNAVINGSSLSFTADSYTTDTALSFSVSVSDGTASDAASLTVTIAKDESGTGGEGDFPAYVEGTAYQAGDQVSNGGVNFECKPYPYSGWCSGAAWAYEPGVGVYWQDAWTQLIE
modifications: PelB signal peptide; 6xHis tag; Chitinase 3
B3: Chitinase 4: chitinolytic enzyme from P. orarium, SEQ ID NO: 4, recombinant with PelB signal peptide and 6×His tag (protein, listed as Photobacterium orarium)
chain: MAQAAANCRPDGLYQTPGVTVPYCTVYDQDGREKMGVDHPRRVIGYFTSWRSGNDPQSSYLVNDIPWDSLTHINYAFVSIGSDGKVNIGNVNNPDNPAVGKEWPGVEIDPALGFKGHFGALATAKAQHGVKTLISIGGWAETGGHFDDNGNRVADGGFYTMTTNADGSINHQGIQTFADSAVAMMRQYKFDGLDIDYEYPTSMQGAGNPDDFAYSDAMRPHLMKSYHELMKVLREKLDQASAQDGHHYMLTIAAPSSGYLLRGMETMSVTKYLDYVNIMSYDLHGAWNDYVGHNASLFDSGLDAELEAGNVYGTAQYKKTGYLNTDWAYHYFRGSMPAGRINIGVPYYTRGWQGVTGGTNGLWGKAALPNQSDCPTGTGAGTSNCGYGAIGIDNMWHDKDANGNEMGAGSNPMWHAMNLANGVYGSYTAAYGLDPVNDPQDALTGTYTRHYDSVSVAPWLWNADKKVFLSTEDKESINTKADYVIEQGIGGIMFWELAGDYSCYNLDANGNRTTVDPTENACKTGNGEYHMGDTMTKAIHNKFATATPYGNTLAEGAIPTEAVNIDVSVTGFKVGDQNYPLNPTMTLTNKTGQTLPGGTEFQFDIPTSTPDNMSDQSGANLQVISSGHTRGDNIGGLDGNFHRVAFTLPSWKQLGNNESFELTLNYFLPISGPANYSVRVNNADYALAFEQPDLPIADLSNGGGDNGGGDGNNGDCVTTGVNTYPNWPQTDWAGNPSHAGTGDKIIYNGAVYQAKWWTNSVPGSDGSWDTVCTVQIE
modifications: PelB signal peptide; 6xHis tag; Chitinase 4

Experiments:
Fusarium oxysporum = assay: Minimum inhibitory concentration (MIC) test on fungal pathogens; format: cell-based; design: key: xx = no growth/strong inhibition; x = small inhibition; conditions: start concentration 100 μg/ml
[1] = Temperature, pH and NaCl optima and temperature stability of recombinant chitinases (reducing end assay); format: biochemical; conditions: for Optimum pH / Optimum salinity / Optimum temperature: chitin powder; for Optimum pH: 30° C., pH 4-11; for Optimum salinity: pH 8, 30° C., 0-20% w/v NaCl; for Optimum temperature: pH 8, range 10-60° C.
Method: All enzymes were first characterized regarding their temperature and pH-optima as well as the optimum NaCl content as the enzymes were isolated from a sea-water microorganism. As the future intention is to integrate these novel enzymes in a degradation processes of natural chitin, all parameters were determined using chitin powder as a substrate instead of pre-treated analogs such as colloidal chitin, glycol chitin or artificial fluorogenic substrates. […] (FIG. 5A). Next, enzyme temperature stability was investigated (FIG. 51). […] Enzyme C1 retained a 50% residual activity after 240 min incubation at 60° C., while the activity of the other chitinases dropped below 50% after 15 min and remained on that level.
Given the marine origin of the P. orarium strain, the effect of salt was also evaluated, testing the addition of NaCl to the standard buffer. […] Increasing NaCl amounts up to 20% (w/v) reduced enzyme activity substantially to 10% for C2, 4 and 5, with C1 and C3 showing highest tolerance (65% activity).
For the determination of enzymatic activity of recombinant chitinases, a reducing end assay was carried out [Svein et al., Carbohydr Polym, 2004. 56(1): p. 35-39.]. Fractions containing chitinases were incubated with 5% (w/v) chitin powder extracted from shrimp shells (˜400.000 g/mol; Carl Roth) in MAT buffer for 2 h in an overhead shaker at ambient temperature (standard conditions). Samples were centrifuged at 13000×g for 2 min and 40 μl of the supernatant was mixed with 40 μl 0.5 M NaOH and 40 μL of a reagent containing 1.5 mg/ml 3-Methyl-2-benzothiazolinonhydrazon and 0.75 mg/ml Dithiothreitol. Samples were incubated at 80° C. for 15 min and then thoroughly mixed with 80 μl of 0.5% (w/v) FeNH4(SO4)2)×12H2O, 0.5% (w/v) sulfamic acid and 0.25 M HCl. After cooling down to room temperature, 100 μl of the samples were measured at 620 nm. A calibration curve of N-acetyl-glucosamine was constructed freshly for each measuring cycle. One unit [U] was defined as the amount of enzyme required to release 1 μmol of reducing sugars per hour.
Enzyme samples were incubated at different temperature (10-60° C., 10° C. increment) and pH (4-11, increment 1) using different buffer systems (Acetate, Tris-HCl, MES, total molar concentration 100 mM), as well as NaCl content (0, 1. 2.5, 5, 10 and 20% w/v) to determine optimum reaction conditions. All experiments were carried out at 1.0 ml scale using 2 μM of the respective enzymes and a 5% (wv) suspension of chitin powder extracted from shrimp shells (˜400.000 g/mol; Carl, Roth) in 100 mM MAT buffer. For the determination of the substrate specificity, chitin powder (5% w/v), glycol chitin (10% v/v), colloidal chitin (5% w/v), chitosan [DA 15-25%, medium molecular weight, Sigma-Aldrich] (5% w/v) and microcrystalline cellulose powder (Sigma Aldrich) (5% w/v) were investigated, respectively. The effect of several potential co-factors on activity was elucidated at a concentration of 1 mM. Additionally, the effect of detergents [SDS 0.5% (w/v), Tween-20 and Triton X-100 both at 0.5% (v/v)] and chemicals (Imidazole 100 mM, EDTA 1 mM) on enzymatic activity was assessed. Samples were incubated in a thermomixer for 16 h at 900 rpm. After incubation, samples were analyzed using the enzyme assay. Thermostability was assessed after incubation of recombinant chitinases at 60° C. for different durations followed by the quantification of residual enzyme activity under standard assay conditions.

[2] = TLC analysis of cleavage patterns with chitin standard molecules; format: biochemical; conditions: for hydrolysis products from chitin pentamers / hydrolysis products from chitin trimers: 4 mg/ml, 16 h, TLC; for cleavage mechanism (exo-/endo-chitinase activity): TLC of products from oligomeric or polymeric chitin substrates
Method: monomeric oligomers. Chitosan was degraded to a crude mixture of multiple oligomers ranging from dimers to pentamers and even larger undefined yet water-soluble fragments that migrated slightly from the starting point. Further analysis of the cleavage patterns was carried out using chitin standard molecules of DP2-DP6 and incubating them at 4 mg/ml concentration with the individual enzymes (FIG. 9).
Dimeric chitin molecules were not converted by any of the enzymes. […] All chitinases degraded chitin tetramers to dimers as a single product. […] Chitin hexamers were degraded to dimers and trimers. Although all chitinases are different in their structure and present different glycosyl hydrolase domains hydrolysis products in general were similar.
C2, 4 and 5 yielded similar product patterns when incubated with insoluble substrates. […] The presented data underline that the novel chitinases are all suited for the degradation of powdery chitin without any further harsh chemical pre-treatment.
Hydrolysis products were analyzed using 10×10 cm TLC Silica gel 60 F254 plates (Merck, Darmstadt, Germany) and a mixture of butanol:methanol:25% ammonia:H2O (5:4:2:1) as mobile phase. A total sample volume of 0.5 μl was applied in 0.25 μl spots. Chitin standard sugars (Megazyme, Chicago, USA) (5 mg/ml) were applied to the plate (0.5 μL in 0.25 μL spots) as size standard for the determination of the DP. After separation, the plate was air-dried and the developing solution (200 ml Acetone, 30 ml phosphoric acid (85%), 4 ml aniline, 4 g diphenylamine) was sprayed on the plate followed by spot visualization at 300° C. using a heat gun.

Molecule	growth inhibition of Fusarium oxysporum in the MIC test (Fusarium oxysporum)	residual activity ([1]; after 240 min incubation at 60° C.)	Optimum pH [1]	Optimum salinity [1]	Optimum temperature [1]	hydrolysis products from chitin pentamers [2]	hydrolysis products from chitin trimers [2]	cleavage mechanism (exo-/endo-chitinase activity) [2]
B1	xx	50%	8	1 % NaCl	30 °C	dimers and monomers	dimers and monomers	exo-chitinase activity
B2	xx	–	8	5 % NaCl	30 °C	dimers and monomers	dimers and monomers	exo-chitinase activity
B3	xx	–	8	1 % NaCl	30 °C	trimers and dimers	dimers and monomers	endo-chitinase activity
